Data set [1] has as its target GUCY2C (Homo sapiens, UniProt P25092). Description: Immunoreactive fraction (IRF), binding to GUCY2C-coated beads. How it is done:
Shortly after completion of the radiolabeling, the binding was assessed by measuring the fraction of radiolabeled antibody-chelator conjugate bound to relevant antigen coated magnetic beads (Thermo Fisher Scientific). In short, beads were placed in 2 mL Eppendorf tubes in 90 µL buffer (PBS/0.1% Tween 20/1% BSA). The radiolabeled compounds were diluted to 5 Bq/µL in buffer and 50 Bq were added to each bead-containing tube. The binding lasted for 60 min while shaking at 750 rpm at room temperature. After completion of the binding step, magnet (DynaMag-2) was used to separate the beads from […] supernatant. The radio activities in the supernatant and in the beads of each sample were measured using a high purity Germanium detector (Ortec). […] Total binding was defined as [(activity in beads […])/ (total activity)] × 100.
After completion of the radiolabeling, the binding Ac225-macropa-Indusatumab to GUCY2C-coated M270-carboxy Dynabeads was determined by IRF (as describe above).

Data set [2] deals with CHO cells stably expressing GUCY2C. Particulars: 20 kBq/µg; 6 days; vs isotype control.
Description: In vitro cytotoxicity of Ac-225-ACC was determined in cell lines expressing different levels of relevant target receptors. Cells were seeded at an appropriate cell density in relevant cell media. One day after seeding, the radiolabeled compounds at the specific activity of 2-20 kBq/µg and radioactive concentration of 50-100 kBq/ml were titrated in parallel with a radiolabeled isotype control. Cells were incubated for 5-6 days. Cell viability was determined by cell counting using Hoechst and PI staining and analyzed on Operetta CLS High Content Analysis System (Perkin Elmer) or by ATP measurements using CellTiterGlo (Promega).
The cells were seeded at an appropriate cell density in MEM Alpha + 10% FBS + 1x Glutamax + 0.5 mg/ml G418. […] Cells were treated for 6 days and subsequentially cell viability was determined using CellTiterGlo (Promega).
Data set [3] concerns the target T1, human c-Met (Homo sapiens, UniProt P08581).
T1 construct: MKN-45 and HT-55 cells expressing human c-Met; endogenous in cells; host or cells: MKN-45, HT-55
Description: Flow cytometry, cell surface binding on MKN-45 and HT-55 cells. Particulars: compared to unconjugated Telisotuzumab. The method, then:
The in vitro binding properties of antibody-chelator conjugates were assessed in various relevant cell lines and compared to their corresponding unconjugated antibody. Briefly, samples were diluted in buffer (PBS/3% FBS) and added to relevant cell lines. After completion of the binding step (60 min at 4°C), the cells were washed and incubated with secondary antibody conjugated with phycoerythrin to detect antibodies containing a human IgG Fc region. After 60 min at 4°C, the cells were washed, and fluorescence on the cells was determined by flow cytometry using Guava EasyCyte 8HT (Luminex).
Cell surface binding of Telisotuzumab-macropa was compared to unconjugated Telisotuzumab and investigated by flow cytometry using MKN-45 and HT-55 cells expressing human c-Met (Figure 37).
For orientation: A flow cytometer gives signals particle by particle.

T1 sequence (P08581 25-1390): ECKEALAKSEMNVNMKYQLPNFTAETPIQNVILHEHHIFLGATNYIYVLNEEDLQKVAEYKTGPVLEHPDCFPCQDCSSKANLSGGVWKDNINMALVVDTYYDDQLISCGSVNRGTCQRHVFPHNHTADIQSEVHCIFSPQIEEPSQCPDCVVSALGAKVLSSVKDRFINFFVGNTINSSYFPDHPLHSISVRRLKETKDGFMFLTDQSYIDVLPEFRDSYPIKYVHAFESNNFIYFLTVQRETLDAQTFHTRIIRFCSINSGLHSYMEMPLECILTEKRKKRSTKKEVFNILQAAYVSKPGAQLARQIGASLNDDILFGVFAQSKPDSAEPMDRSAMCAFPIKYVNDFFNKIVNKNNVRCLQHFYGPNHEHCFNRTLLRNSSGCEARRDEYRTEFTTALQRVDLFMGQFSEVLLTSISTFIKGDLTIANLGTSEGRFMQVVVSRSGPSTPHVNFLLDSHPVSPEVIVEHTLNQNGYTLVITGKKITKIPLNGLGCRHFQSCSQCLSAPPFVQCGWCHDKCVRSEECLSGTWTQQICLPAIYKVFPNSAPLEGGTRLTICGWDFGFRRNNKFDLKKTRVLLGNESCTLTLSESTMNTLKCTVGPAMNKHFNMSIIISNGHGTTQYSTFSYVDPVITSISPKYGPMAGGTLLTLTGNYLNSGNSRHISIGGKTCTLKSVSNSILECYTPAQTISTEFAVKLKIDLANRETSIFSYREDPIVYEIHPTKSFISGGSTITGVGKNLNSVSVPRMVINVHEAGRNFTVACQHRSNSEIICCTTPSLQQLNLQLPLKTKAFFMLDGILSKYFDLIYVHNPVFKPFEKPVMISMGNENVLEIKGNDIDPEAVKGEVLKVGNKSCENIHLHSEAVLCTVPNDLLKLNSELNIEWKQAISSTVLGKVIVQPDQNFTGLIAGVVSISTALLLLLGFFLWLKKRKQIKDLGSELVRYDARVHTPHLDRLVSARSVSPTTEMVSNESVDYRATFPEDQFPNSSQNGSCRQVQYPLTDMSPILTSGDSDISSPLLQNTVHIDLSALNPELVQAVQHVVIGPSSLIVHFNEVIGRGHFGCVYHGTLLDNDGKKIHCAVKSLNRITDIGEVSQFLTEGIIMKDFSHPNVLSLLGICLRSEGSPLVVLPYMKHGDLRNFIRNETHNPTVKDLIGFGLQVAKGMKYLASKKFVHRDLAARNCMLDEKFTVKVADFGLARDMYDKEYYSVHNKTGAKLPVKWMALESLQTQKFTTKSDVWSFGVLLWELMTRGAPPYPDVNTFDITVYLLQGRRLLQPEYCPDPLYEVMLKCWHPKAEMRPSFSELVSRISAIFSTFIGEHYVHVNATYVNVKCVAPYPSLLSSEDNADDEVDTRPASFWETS

Turning to “Ac-225-macropa-Indusatumab: Ac-225 macropa complex bound to the anti-GUCY2C monoclonal antibody Indusatumab”, the “amount of GUCY2C-coated beads at which maximal binding was achieved” value in data set [1] came to 7.5 µg. In addition, the cytotoxicity result in data set [2] was “strong and specific cytotoxicity”.

For the substance Telisotuzumab-macropa, in data set [3], the EC50 entry was “comparable EC50 in both cell lines as unconjugated Telisotuzumab”.

The values are drawn from patent EP4552657A1, “RADIOPHARMACEUTICAL COMPLEXES AND COMBINATIONS” (priority 2023, dated 2025).
